Target: ap2a_human TFAP2A (UniProt P05549)
Sequence (P05549 whole entry): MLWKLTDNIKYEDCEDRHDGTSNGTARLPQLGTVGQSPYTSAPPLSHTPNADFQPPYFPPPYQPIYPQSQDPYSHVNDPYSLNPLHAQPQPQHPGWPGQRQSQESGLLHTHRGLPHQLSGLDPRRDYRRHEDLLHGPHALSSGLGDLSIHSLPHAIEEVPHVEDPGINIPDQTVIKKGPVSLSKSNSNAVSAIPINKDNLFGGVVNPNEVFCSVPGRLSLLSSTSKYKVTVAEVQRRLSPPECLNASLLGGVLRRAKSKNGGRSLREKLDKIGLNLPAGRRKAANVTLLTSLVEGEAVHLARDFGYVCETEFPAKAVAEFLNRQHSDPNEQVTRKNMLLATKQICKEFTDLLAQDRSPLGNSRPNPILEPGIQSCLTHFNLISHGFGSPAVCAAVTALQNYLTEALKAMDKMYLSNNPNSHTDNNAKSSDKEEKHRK

effect of a mutation on the interaction: disrupting interaction
Substance: Histone acetyltransferase p300 (Homo sapiens), Q09472 D1399Y
